What was measured:
crystal structure = target: the molecule itself; assay: crystal structure
AUC = target: the molecule itself; assay: AUC

B1: Sre1-CTD ΔC-tail variant, residues 628-876, C644S/C672S (domain or fragment, Schizosaccharomyces pombe, UniProt Q9UUD1 628-876, looked up)
chain: QHSKSSVHAELRELPESTANLIENSHADDVFSPNMVERLWVLAKSTRDSAQMSDSIISSLSDVLVLSPLEVLASWYAADLLDALLMESLSRKVEISEIEEIISLCPKNSSIIRHALLAKLVLFPENTADSLNEVLAAYKNTLDLCSQDKRKQSSVLKINLSKLFTLHSCLSLALQRLGYGDVSKRMYQEIFVPDSDADITPLSFIISWTALNTFAPICTSPKENDVVEKMAMYVRTAIGTLKIQDLKLS
With B1 the “stoichiometry N” value (crystal structure) was 2.

B2: Sre1-CTD WY mutant, residues 628-896, W702D/Y703D (domain or fragment, Schizosaccharomyces pombe, UniProt Q9UUD1 628-896, looked up)
chain: QHSKSSVHAELRELPECTANLIENSHADDVFSPNMVERLWVLAKCTRDSAQMSDSIISSLSDVLVLSPLEVLASDDAADLLDALLMESLSRKVEISEIEEIISLCPKNSSIIRHALLAKLVLFPENTADSLNEVLAAYKNTLDLCSQDKRKQSSVLKINLSKLFTLHSCLSLALQRLGYGDVSKRMYQEIFVPDSDADITPLSFIISWTALNTFAPICTSPKENDVVEKMAMYVRTAIGTLKIQDLKLSRKLINSCIDIGSRLQEDLGY
In the case of B2, the “stoichiometry N” value (AUC) is reported as 2.
